Assay: yeast display, Sf9 membrane polyspecificity reagent, FACS + sequencing; frameworks hold sequencing errors
In short: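 Sorting gates, low and high (top ~1%), were placed on anti-HA fluorescence to track expression and on streptavidin fluorescence to track reagent binding. A clone's polyreactivity label is taken from the gate it came out of. The reagent was 10% biotinylated, detergent-solubilized Sf9 membrane, applied for 1 hour at 4 °C to galactose-induced yeast display cells.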

Sequence	polyreactivity (PSR sort gate)
QVQLVESGGGLVQAGGSLRLSCAASGRIFFDYAMGWYRQAPGKERELGADISYNGGSTNYADSVKGRFTISRDNAKNTVYLQMISLKPEDTAVYYCNRALVPVYDLDYYWGQGTQVTVSS	low polyreactivity
QVQLVESGGGLVQAGGSLRLSCAASGRIFFDYAMGWYRQAPGKERELVAAISSGGSRTYYADSVKGRFTISRDNAKNTVYLQMNSLKPEDTAVYYCAADSTVYQDEYWGQGTQVTVSS	high polyreactivity
QVQLVESGGGLVQAGGSLRLSCAASGRIFFDYDMGWYRPAPGKERELVAAISSSGDSTYYADSVKGRFTISRDNAKNTVYLQMNSLKPEDTAVYYCNAKSVPVNYVAIKYDYWGQGTQVTVSS	high polyreactivity
QVQLVESGGGLVQAGGSLRLSCAASGRIFFKYAMGWYRQAPGKERELVAAISKTGGRTYYADSVKGRFTISRDNAKNTVYLQMNSLKPEDTAVYYCRGYTSFGYDYWGQGTQVTVSS	high polyreactivity
QVQLVESGGGLVQAGGSLRLSCAASGRIFFLYAMAWYRQAPGKEREFVAAISSSGGSTYYADSVKGRFTISRDNAKNTVYLKMNSLKPEDTAVYYCNADATWSGYIVSYDYWGQGTQVTVSS	low polyreactivity
QVQLVESGGGLVQAGGSLRLSCAASGRIFFPYAMGWYRQAPGKERELVAAISTSSGRTYYADSVKGRFTISRDNAKNTVYLQMNSLKPEDTAVYYCNTRPGSYSYSYRYYYWGQGTQVTVSS	high polyreactivity
QVQLVESGGGLVQAGGSLRLSCAASGRIFFPYAMGWYRQAPGKERELVAVITSGGTTYYADSVKGRFRISRDNAKNTVYLQMNSLKTEDTAVYYCAVHWYSYRYAATMDYWGQGTQVTVSS	high polyreactivity
QVQLVESGGGLVQAGGSLRLSCAASGRIFFRNAMGWYRQAPGKERELVAAITWNGGSTYYADSVKGRFTISRDIAKNTVYLQMNSLKPEDTAVYYCNKAGVSYRSQYYYWGQGTQVTVSS	high polyreactivity
QVQLVESGGGLVQAGGSLRLSCAASGRIFFRNAMGWYRQAPGKERELVAAITYSGGSTYYADSVKGRFTISRDNAKNTVYFQMNSLKPEDTAVYYCYADYYPYGEYDYWGQGTQVTVSS	high polyreactivity
QVQLVESGGGLVQAGGSLRLSCAASGRIFFRYAMGWYRQAPGKEREFVAAISGTGGSTYYADSVKGRFTISRDNAKNTVYLQMNSLKPEDTAVYYCAASVVSRPTYYAYYYWGQGTQVTVSS	high polyreactivity
QVQLVESGGGLVQAGGSLRLSCAASGRIFFRYTMGWYRQAPGKESELVAAITKRGGTYYADSVKGRFTISRDNAKNTVYLQMNSLKPEDTAVYYCNAVRYGINSYTYRRGYWGQGTQVTVSS	high polyreactivity
QVQLVESGGGLVQAGGSLRLSCAASGRIFFSYMGWYRQAPGKERELVAAISSGGSTYYADSVKGRFTISRDNAKNTVYLQMNSLKPEDTAVYYCAARYRLDGTHMTGYAYYSWGQGTQVTVSS	high polyreactivity
QVQLVESGGGLVQAGGSLRLSCAASGRIFFWYAMGWYRQAPGKERELVAGITSGGSTNYADSVKGRFTISRDNAKNTVYLQMNSLKPEDTAVYYCNTVDSIPIGSGLYYYWGQGTQVTVSS	low polyreactivity
QVQLVESGGGLVQAGGSLRLSCAASGRIFFYYAMGWYRQAPGKERELVATISYSGGGTYYADSVKGRFTISRDNAKNTVYLQMNSLKPEDTAAYYCNARWGTPYYIQDFDYWGQGTQVTVSS	low polyreactivity
QVQLVESGGGLVQAGGSLRLSCAASGRIFGAYAMGWYRQAPGKERELVAAITSRGGNTYYADSVKGRFTISRDNAKNTVDLQMNSLKPEDTAVYYCAARHDKRRQYYFGQSAFDYWGQGTQVTVSS	low polyreactivity
QVQLVESGGGLVQAGGSLRLSCAASGRIFGAYAMGWYRQAPGKERELVAASSSGGSTYYADSVKGRFTISRDNAKNTVSLQMKSLNPEDTAVYYCAASSGNGYGYWGQGTQVSVSS	high polyreactivity
QVQLVESGGGLVQAGGSLRLSCAASGRIFGAYAMGWYRQAPGKERELVATITKRGGSTFYADSVKGRFTISRDNAKNTVYLQMNSLKPEDTAVYYCAVSSFYRGRYDYWGQGTQVTVSS	high polyreactivity
QVQLVESGGGLVQAGGSLRLSCAASGRIFGCYAMGWYRQAPGKERELVAAISSGGNTKYADSVKGRFTISRDNAKNTVYLQMNSLKPEDTAVYYCAAKFAQPDYRYDYWGQGTQVTVSS	high polyreactivity
QVQLVESGGGLVQAGGSLRLSCAASGRIFGDNGMGWYRQAPGKERELVTYADSVKGRFTISRDNAKNTVYLQLNSLQPEDTAVYYCYSPFGGKYDYWGQGTQVTVSS	low polyreactivity
QVQLVESGGGLVQAGGSLRLSCAASGRIFGDYAMGWYRQAPGKERELVADITWSGGSTYYADSVKGRFTISRDNAKNTVYLQMNSLKPEDTAVYYCNADVWFYYTFDYWGQGTQVTVSS	low polyreactivity
QVQLVESGGGLVQAGGSLRLSCAASGRIFGDYGMGWYRQAPGKDRELVAAITDRGGTTYYADSVKGRFTISRDNAKNTVYVQKNSLQPEDTAVYYCNADTVVVWYSPSREYDYWGQGTQVTVSS	low polyreactivity
QVQLVESGGGLVQAGGSLRLSCAASGRIFGEYAMGWYRQAPGKERELVAAISGGGSTYYADSVKGRFTISRDNAKNTVYLQMNSLKPEDTAVFYCAVYSVYHEYDYWGQGTQVTVSS	low polyreactivity

Sequence	polyreactivity (PSR sort gate)
QVQLVESGGGLVQAGGSLRLSCAASGRIFGFNAMGWYRQAPGKERQLVAAISGRSGRTYYADSVKGRFTISRDNAKNTVYLQLNSLIPEDTAVYYCNTVGYRGPSWYVYWGQGTQVTVSS	high polyreactivity
QVQLVESGGGLVQAGGSLRLSCAASGRIFGFYTIGWYRQAPGKERELVATISWSGSGTYYADSVKGRFTISRDNAKNTVYLQMNSLKPEDTAVYYCNADWYYVGYDYWGQGTQVTVSS	low polyreactivity
QVQLVESGGGLVQAGGSLRLSCAASGRIFGGNAMGWYRQAPGKERELVAAINSSGGRTYYADSVKGRFTISRDNAKNTVYLQMNSLKPEDTAVYYCAARVGGNWYDYWGQGTQVTVSS	high polyreactivity
QVQLVESGGGLVQAGGSLRLSCAASGRIFGGYAMGWYRQAPGKERELVAAIRWSGGSTYADSVKGRFTISRDNAKYTVYLQMNSLKPEDTAVYYCNTVRSPPGHDYWGQGTQVTVSS	low polyreactivity
QVQLVESGGGLVQAGGSLRLSCAASGRIFGGYAMGWYRQAPGKERELVAAISNGGSTYYADSVKGRFTISRDNAKNTVYLQMNSLKPEDTAVYYCAARWNWTGYRYDHWGQGTQVTVSS	low polyreactivity
QVQLVESGGGLVQAGGSLRLSCAASGRIFGGYDMGWYRQAPGKERELVAAMTSDSSTTYADSVKGRFTISRDNAKNTVYLQMNSLKPEDTAVYYCAVQVNGPVFYRPYLDYDYWGQGTQVTVSS	low polyreactivity
QVQLVESGGGLVQAGGSLRLSCAASGRIFGHYAMGWYIQAPGKERELVAAISRGGSTNYADSVKGRFTISRDNAKNTVYLQINSLKPVDNAVYYCNAAYSDYEYDYWGQGTQVSVSS	low polyreactivity
QVQLVESGGGLVQAGGSLRLSCAASGRIFGHYAMGWYRQAPGKEMELVAAITIGGSTYYADSVKGRFTISRDNAKNTVYLQMNSLKPEDTAVYYCAKVGSNYRGRLGYWGQGTQVTVSS	low polyreactivity
QVQLVESGGGLVQAGGSLRLSCAASGRIFGHYAMGWYRQAPGKERELVAAISRGGSTYYADSVKGRFTISRDNAKNTVYLQMNSLKPEDTAVYYCNTTKAYGSLWWRGDYWGQGTQVTVSA	high polyreactivity
QVQLVESGGGLVQAGGSLRLSCAASGRIFGHYAMGWYRQAPGKERELVASITDGTSTNYADSVKGRFTISRDNAKNTVYLQMNSLKPEDTADYYCAADDRLQFPRGDYCGQGTQVTVSS	low polyreactivity
QVQLVESGGGLVQAGGSLRLSCAASGRIFGINAMGSYRQAPGKERELVAAINWSGGSTYYADSVKGRFTISRDNAKNTVYLQMNSLKPEDTAVYYCAAQKYKRVGYWGQGTQVTVSS	high polyreactivity
QVQLVESGGGLVQAGGSLRLSCAASGRIFGINVMGWYRQAPGKERELVAAISYRTGSTYYADSVKGRFTISRDNAKNTVYLQMNSLKPEDTAVYYCAAQRRIRTAWYDYWGQGTQVTVSS	high polyreactivity
QVQLVESGGGLVQAGGSLRLSCAASGRIFGIYAMGWYRQAPGKERELVAAINSGDSTYADSVKGRFTISRDNAKNTVYLQMNSLKPEDTAVYYCAAEESTSSWSINDYWGQGTQVNVSS	low polyreactivity
QVQLVESGGGLVQAGGSLRLSCAASGRIFGIYAMGWYRQAPGKERELVAAITWNGGSTYYADSVKGRFTNSRDNAKNTVYLQMNSLKPEDTAVYYCAARTADYSYGRRVVTRYGYWGQGTQVTVSS	high polyreactivity
QVQLVESGGGLVQAGGSLRLSCAASGRIFGIYAMGWYRQAPGKERELVASITDGTITNYADSVKGRFTISRDNAKNTVYLQMNSLIPEDTAVYYCAAGTQAHAYVVRPIEMDYWGQGTQVTVSS	low polyreactivity
QVQLVESGGGLVQAGGSLRLSCAASGRIFGLNAMGRYRQAPGKERELVAAISERDGSTYYADSVKGRFTISRDNAKNTVYLQMNSLKPEDTAVYYCAAEKPVHYVRGVHYDYWGQGTQVTVSS	low polyreactivity
QVQLVESGGGLVQAGGSLRLSCAASGRIFGLNAMGWYRQAPGKERELVAAIDRSGASTYYADSVKGRFTISRDNAKNTVYLQMNSLKPEDTAVYYCAAESYLSGEEYDYWGQGTQVTVSS	high polyreactivity
QVQLVESGGGLVQAGGSLRLSCAASGRIFGLNTMGWYRQAPGKERELVAAITSSAGSTYYADSVKGRFTISRDNAKNTVYLQMNSLKPEDTAVYYCAARVSYLGSFTSQRYYYWGQGTQVTVSS	high polyreactivity
QVQLVESGGGLVQAGGSLRLSCAASGRIFGLYAMGWYRQAPGKARELVAAISTRGGSTRYADSVKGRFTISRDTAKNTVYLQMNSLKPEDTAVYYCAKQPKPPPVTGYDYWGQGTQVTVSS	high polyreactivity
QVQLVESGGGLVQAGGSLRLSCAASGRIFGLYAMGWYRQAPGKERELVAAIRGRGGRTSYADSVKGRFTISRDNAKNTVYLQMNSLKPEDTAVYYCNAELYPWPGVVRYNYWGHGTQVTVSS	high polyreactivity
QVQLVESGGGLVQAGGSLRLSCAASGRIFGLYAMGWYRQAPGKERELVAAISRRGGTTYYADSVKGRFTISRDNAKNTVYLQMNSLKPEDTAVYYCAAATVYLSWYYWGQGTQVTVSS	high polyreactivity
